In patent US20090123447A1, “COMPOSITIONS AND METHODS TO INHIBIT RNA VIRAL REPRODUCTION” (priority 2007, published 2009):

How the values were obtained:
[1] = system: subgenomic HCV replicon of genotype 1b; experiment: microbe, parasite or virus in culture; format: cell-based, hepatitis C virus
Description: Huh7 human hepatoma cells were cultured in Dulbecco's modified Eagle medium (DMEM; Invitrogen, Carlsbad, Calif., USA) supplemented with 10% fetal bovine serum (FBS; Invitrogen), 100 units/ml of penicillin, and 100 μg/ml of streptomycin in a 5% CO2 incubator. SgPC2 cells are G418-selected, pooled Huh7 cell clones that support the continuous replication of a subgenomic HCV replicon of genotype 1b and [29] (GenBank Accession No. AJ242652) that carries a S11791 adaptive mutation within the NS5A region. SgPC2 cells were maintained in the above medium supplemented with 0.5 mg/ml G418 (Invitrogen). G418 was removed at least 1 day before cell treatments.

[2] = system: intracellular calcium concentration ([Ca^2+]i); experiment: [Ca^2+]i measurement with Indo-1 AM in SgPC2 cells; format: cell-based, human; details: 24 h, 2 mU/ml GO
Description: Briefly, on the day of the experiment, cells were washed in Krebs-Ringer phosphate buffer (KRPH; pH 7.4, containing 1.0 mM MgSO4, 1.3 mM CaCl2, 10 mM Hepes, 5 mM glucose, 125 mM NaCl, 5 mM KCl, and 10 mM sodium phosphate) and subsequently loaded with 10-20 μM Indo-1 AM (70 μl/coverslip; Molecular Probes, Inc., Eugene, Oreg., USA) containing 10 μM probenecid (Molecular Probes) for 30 min at 37° C. The attached cells were washed and bathed in KRPH/probenecid at 4° C. or room temperature until further analysis. Then, coverslips were individually submerged into KRPH and preequilibrated inside the […] fluorimeter (Hitachi) in darkness for 3 min, and [Ca^2+]i was monitored continuously at 37° C., with excitation at […] and emission at 400 and 450 nm. H2O2 and other agents were injected at different time points, as indicated under Results. [Ca^2+]i was calculated as described. Rmax was determined by adding 8-16 μM digitonin and Rmin with 10 mM ethylene glycol-bis(β-aminoethyl)-N,N,N'-tetraacetic acid (EGTA). […] The baseline, which represented unstimulated cells scanned over time, was plotted along with other measurements or subtracted from the other plots. Cells were serum-depleted, 1 day before the experiment, by incubating them overnight in DMEM plus 0.5% FBS. […] Then, CaCl2 was added before determining the Rmax for each run.

[3] = system: JFH1 HCV (genotype 2a); format: cell-based, hepatitis C virus; details: JFH1-transfected cells, 0.25 mU/mL GO plus glucose
Description: (§1) For viral RNA transfection, JFH1, JFH1/GND, and pSGR-JFH1-Luc were linearized with XbaI and used to synthesize the corresponding positive-sense stranded HCV RNA, as previously described (68). Then, 5×10^6 Huh7 cells were rinsed with Opti-Mem (Invitrogen), mixed briefly with 10-20 μg of the in vitro transcribed RNA in 0.4 ml of Opti-Mem, and then electroporated at 260 volts and 950 μF. […] Medium was changed daily. For infection with HCV, medium collected from JFH1 RNA-transfected cells were cleared of cell debris, as described, and added to naïve Huh7 cells. Typically, 1:2 or 3:2 ratio of the virus-containing medium and fresh cell culture medium were used.
JFH1/GND was used as the negative control. […]
Intracellular JFH1 HCV RNA content was also analyzed by qRT-PCR (Taqman), using ABI7300 real time PCR system and one step RT-PCR kit from Applied Biosystems. […] All samples were analyzed in duplicates or triplicates. […] The level of 18S rRNA was also analyzed, using manufacturer-optimized protocol, as the control.
To analyze the amount of the extracellular HCV RNA, medium from the cells were cleared by low-speed centrifugation and then, treated with RNaseA at room temperature. Then, the RNA samples were extracted, using Trizol LS Reagent (Invitrogen), and analyzed for HCV RNA content by qRT-PCR.

[4] = system: SgJFH1-Luc RNA (subgenomic JFH1 replicon); experiment: SgJFH1-Luc RNA replication in Huh7 cells, luciferase assay; format: cell-based, hepatitis C virus; details: Huh7 cells transfected with SgJFH1-Luc RNA
Description: as §1
SgJFH1-Luc RNA replication was also monitored by firefly luciferase reporter assay, using a kit from Promega.
To investigate whether the HCV RNA replication is modulated by ROS, Huh7 cells were transfected with the SgJFH1-Luc RNA and treated with GO plus glucose.
After 24 and 48 hours, respectively, the cells were collected in PBS, centrifuged, lysed in the reporter lysis buffer (Promega), and analyzed for luciferase activity.

[5] = system: JFH1-transfected cells; experiment: ATP concentration as cytotoxicity measure in JFH1-transfected cells; details: JFH1-transfected cells, concentrations used
Description: Determination of ATP concentrations—ATP level was measured, using Somatic Cell ATP Assay kit from Sigma-Aldrich, as previously described (68). Protein level was determined with bicinchoninic acid kit (Pierce Biotechnology, Inc., Rockford, Ill.).
ATP concentration was measured to determine if the treatments were cytotoxic to the cells.

[6] = system: HCV NS5A; details: after 24 h of GO exposure
Description: Cells were sonicated in 2× Laemmli buffer and total protein samples were analyzed for HCV NS5A level by Western blot, using monoclonal anti-NS5A antibodies (Biodesign) and the corresponding horseradish peroxidase-conjugated secondary antibodies. Chemiluminescent images were processed with an ECL kit from Amersham Pharmacia and analyzed with the IS2000 gel imaging system (Kodak).

B1: GO: enzyme which catalyzes the oxidation of β-D-glucose to D-glucono-1,5-lactone and hydrogen peroxide (protein, UniProt P13006 17-605, looked up)
Glucose oxidase: LPHYIRSNGIEASLLTDPKDVSGRTVDYIIAGGGLTGLTTAARLTENPNISVLVIESGSYESDRGPIIEDLNAYGDIFGSSVDHAYETVELATNNQTALIRSGNGLGGSTLVNGGTWTRPHKAQVDSWETVFGNEGWNWDNVAAYSLQAERARAPNAKQIAAGHYFNASCHGVNGTVHAGPRDTGDDYSPIVKALMSAVEDRGVPTKKDFGCGDPHGVSMFPNTLHEDQVRSDAAREWLLPNYQRPNLQVLTGQYVGKVLLSQNGTTPRAVGVEFGTHKGNTHNVYAKHEVLLAAGSAVSPTILEYSGIGMKSILEPLGIDTVVDLPVGLNLQDQTTATVRSRITSAGAGQGQAAWFATFNETFGDYSEKAHELLNTKLEQWAEEAVARGGFHNTTALLIQYENYRDWIVNHNVAYSELFLDTAGVASFDVWDLLPFTRGYVHILDKDPYLHHFAYDPQYFLNELDLLGQAAATQLARNISNSGAMQTYFAGETIPGDNLAYDADLSAWTEYIPYHFRPNYHGVGTCSMMPKEMGGVVDNAARVYGVQGLRVIDGSIPPTQMSSHVMTVFYAMALKISDAILEDYASMQ
- effect on HCV RNA level / replication [1]: dose-dependently suppressed
- intracellular calcium concentration [2]: 66.4 ± 10.7 nM
- decrease of intracellular HCV RNA content [3]: 30±8%
- HCV RNA level by luciferase activity [4]: decreased HCV RNA level
- cytotoxicity (ATP concentration, cell survivability) [5]: did not cause any loss in cell survivability
- NS5A protein level [6]: decrease

B2: IFN-γ: interferon-γ, known to inhibit HCV RNA replication in Huh7 cells (protein, UniProt P01579 24-161, looked up)
Interferon gamma: QDPYVKEAENLKKYFNAGHSDVADNGTLFLGILKNWKEESDRKIMQSQIVSFYFKLFKNFKDDQSIQKSVETIKEDMNVKFFNSNKKKRDDFEKLTNYSVTDLNVQRKAIHELIQVMAELSPAAKTGKRKRSQMLFRG
- effect on HCV RNA replication after 30 min of treatment ([1]; 30 min treatment): no appreciable effect
- HCV RNA level, % of control level ([1]; SgPC2 cells, 24 h, 100 U/ml): about 15%

B3: catalase: exogenous catalase (Sigma-Aldrich) added to confirm the role of H2O2 (protein, UniProt P00432 2-527, looked up)
Catalase: ADNRDPASDQMKHWKEQRAAQKPDVLTTGGGNPVGDKLNSLTVGPRGPLLVQDVVFTDEMAHFDRERIPERVVHAKGAGAFGYFEVTHDITRYSKAKVFEHIGKRTPIAVRFSTVAGESGSADTVRDPRGFAVKFYTEDGNWDLVGNNTPIFFIRDALLFPSFIHSQKRNPQTHLKDPDMVWDFWSLRPESLHQVSFLFSDRGIPDGHRHMNGYGSHTFKLVNANGEAVYCKFHYKTDQGIKNLSVEDAARLAHEDPDYGLRDLFNAIATGNYPSWTLYIQVMTFSEAEIFPFNPFDLTKVWPHGDYPLIPVGKLVLNRNPVNYFAEVEQLAFDPSNMPPGIEPSPDKMLQGRLFAYPDTHRHRLGPNYLQIPVNCPYRARVANYQRDGPMCMMDNQGGAPNYYPNSFSAPEHQPSALEHRTHFSGDVQRFNSANDDNVTQVRTFYLKVLNEEQRKRLCENIAGHLKDAQLFIQKKAVKNFSDVHPEYGSRIQALLDKYNEEKPKNAVHTYVQHGSHLSAREKANL
- effect on the suppression of HCV RNA by GO ([1]; SgPC2 cells, GO 24 h, 130-200 U/ml catalase or 2 μM BAPTA-AM): attenuated the suppression by GO
